The supplement of paper PMC7125110
± gives the standard error. Fewer inactive variants are shown than the library holds.

B1: glmS ribozyme (parent)
chain: AUAAAAGCGCCAGAACUACAGAAAUGUAGUUGACGAGGAGGAGGUUUAUCGAAUUUUCGGCGGAUGCCUCCAAA

How the values were obtained:
Conditions in all cases: with glucosamine-6-phosphate
glucosamine-6-phosphate [1] = variants of: B1; assay: self-cleavage kobs at 40 uM GlcN6P; higher = faster cleavage; RNA array
Procedure, shortened: (§1)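 Tiles bearing barcoded ribozyme variants, transcribed in situ by E. coli RNA polymerase on sequenced MiSeq chips, were imaged over ~14 h at 37 °C using a hybridised Cy3 probe. Glucosamine-6-phosphate was supplied at 40 μM to 10 mM in HEPES/KCl/Mg(OAc)2 buffer. kobs came from one- or two-exponential decay fits to normalised per-tile medians, and weighted Michaelis–Menten fits then provided kcat and KM.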

glucosamine-6-phosphate [2] = variants of: B1; assay: self-cleavage kobs at 160 uM GlcN6P; higher = faster cleavage; RNA array
Procedure, shortened: as §1

glucosamine-6-phosphate [3] = variants of: B1; assay: self-cleavage kobs at 10000 uM GlcN6P; higher = faster cleavage; RNA array
Procedure, shortened: as §1

glucosamine-6-phosphate [4] = variants of: B1; assay: self-cleavage kobs at 640 uM GlcN6P; higher = faster cleavage; RNA array
Procedure, shortened: as §1

glucosamine-6-phosphate [5] = variants of: B1; assay: self-cleavage kobs at 2500 uM GlcN6P; higher = faster cleavage; RNA array
Procedure, shortened: as §1

Row | Variant | self-cleavage kobs at 40 uM GlcN6P (glucosamine-6-phosphate [1]) [s⁻¹] | self-cleavage kobs at 160 uM GlcN6P (glucosamine-6-phosphate [2]) [s⁻¹] | self-cleavage kobs at 10000 uM GlcN6P (glucosamine-6-phosphate [3]) [s⁻¹] | self-cleavage kobs at 640 uM GlcN6P (glucosamine-6-phosphate [4]) [s⁻¹] | self-cleavage kobs at 2500 uM GlcN6P (glucosamine-6-phosphate [5]) [s⁻¹]
1 | C10A G43U | < 1e-05 | < 1e-05 | < 1e-05 |  | 
2 | U30A A33U U56C | < 1e-05 |  |  |  | 
3 | C8G G60C | < 1e-05 | < 1e-05 | < 1e-05 |  | 
4 | G13U C34A U49A U65C | < 1e-05 |  | < 1e-05 |  | 
5 | A15U G62U | < 1e-05 |  | < 1e-05 | < 1e-05 | < 1e-05
6 | C34A C50U | < 1e-05 | < 1e-05 | < 1e-05 | < 1e-05 | < 1e-05
7 | U31C G60C | < 1e-05 |  | < 1e-05 |  | 
8 | U49C C61A C70U | < 1e-05 |  | < 1e-05 |  | 
9 | U30A C70U | 0.000214 ± 3.6e-05 | 0.000386 ± 7.4e-05 | 0.00358 ± 0.00063 | 0.000765 ± 0.00011 | 0.00125 ± 0.00027
10 | C61A U65C C70U | < 1e-05 |  | < 1e-05 |  | 
11 | C8A A52C | < 1e-05 | < 1e-05 | < 1e-05 | < 1e-05 | 
12 | U65G C71A | 4.51e-05 ± 1.7e-05 | 6.43e-05 ± 2e-05 | 0.00276 ± 0.00056 | 0.000497 ± 5.7e-05 | 0.000938 ± 0.00015
13 | A14U A33U C34G G35C U69A | 3.35e-05 ± 1e-05 |  | 7.09e-05 ± 1.3e-05 |  | 
14 | G44C C67U C68U | < 1e-05 | < 1e-05 |  |  | 
15 | A48U A64C C67U | < 1e-05 |  | < 1e-05 | < 1e-05 | 
16 | C8G G37U G41C U56A | < 1e-05 |  |  |  | < 1e-05
17 | C8G G29U | < 1e-05 | < 1e-05 | < 1e-05 | < 1e-05 | < 1e-05
18 | A14U C50G C58G | 0.000124 ± 3.9e-05 |  | 0.000108 ± 2.7e-05 |  | 
19 | G7U G32U U49A | < 1e-05 |  | < 1e-05 | < 1e-05 | < 1e-05
20 | C8U U31G G62U | < 1e-05 |  |  |  | 
21 | C11U A33G U69A | < 1e-05 |  | < 1e-05 |  | 
22 | C67A C71U | 7.16e-05 ± 5.5e-06 | 0.000151 ± 1.3e-05 | 0.00183 ± 0.00025 | 0.000414 ± 4.1e-05 | 0.000679 ± 7.6e-05
23 | G29U G60C C70A | < 1e-05 |  |  |  | 

Row | Variant | self-cleavage kobs at 40 uM GlcN6P (glucosamine-6-phosphate [1]) [s⁻¹] | self-cleavage kobs at 160 uM GlcN6P (glucosamine-6-phosphate [2]) [s⁻¹] | self-cleavage kobs at 10000 uM GlcN6P (glucosamine-6-phosphate [3]) [s⁻¹] | self-cleavage kobs at 640 uM GlcN6P (glucosamine-6-phosphate [4]) [s⁻¹] | self-cleavage kobs at 2500 uM GlcN6P (glucosamine-6-phosphate [5]) [s⁻¹]
24 | C61U G63A | < 1e-05 | < 1e-05 | < 1e-05 | < 1e-05 | 
25 | A48G U69A | < 1e-05 |  |  |  | 
26 | G41C G44U G66U | < 1e-05 |  | < 1e-05 |  | < 1e-05
27 | G44U A48U | < 1e-05 | < 1e-05 |  | < 1e-05 | < 1e-05
28 | G9A G13A | < 1e-05 | < 1e-05 |  | < 1e-05 | < 1e-05
29 | A6U U46G C58A | < 1e-05 |  |  |  | 
30 | A36U C70A | 3.96e-05 ± 1e-05 | 4.33e-05 ± 1.3e-05 | 2.74e-05 ± 7.6e-06 | 0.000143 ± 3.1e-05 | 
31 | G37C G41U U46C | < 1e-05 |  | < 1e-05 |  | 
32 | G35C U45C C67G C68A | 0.00152 ± 0.00042 |  | 0.000566 ± 0.00018 |  | 
33 | G41A G60A G62U C70A | < 1e-05 |  |  |  | 
34 | A12U C67A | 0.000743 ± 7.6e-05 | 0.000983 ± 0.00027 |  | 0.00261 ± 0.00048 | 0.0101 ± 0.0038
35 | U57G G62A | < 1e-05 |  | < 1e-05 |  | 
36 | A12G A53U C58U | < 1e-05 |  |  |  | 
37 | C8A G40C | < 1e-05 | < 1e-05 | < 1e-05 | < 1e-05 | < 1e-05
38 | G21U G43U G51U | < 1e-05 |  | < 1e-05 | < 1e-05 | 
39 | C11A C61A C67A | 0.000153 ± 4.5e-05 |  | 7.62e-05 ± 2.5e-05 |  | 
40 | C10G G13U A14U | < 1e-05 |  |  |  | 
41 | U49A G63C U69C | < 1e-05 |  |  |  | 
42 | C10A G29A C67G | 0.000103 ± 3.7e-05 |  | 0.000102 ± 3e-05 |  | 
43 | C8G G59U | < 1e-05 | < 1e-05 |  | < 1e-05 | < 1e-05
44 | C34U U56A | < 1e-05 | < 1e-05 |  | < 1e-05 | < 1e-05
45 | C10G U65G | < 1e-05 | < 1e-05 | < 1e-05 | < 1e-05 | < 1e-05
46 | A39U A42C U54C U65C | < 1e-05 |  |  | < 1e-05 | < 1e-05
